Results as given in patent US20040033229A1.
Several values for one entry are separate records, joined by “and”; a condition that tells them apart may be missing. Equal entries are not always repeated.

Legend:
[1] = target: prostate specific membrane antigen (PSMA), full-length, on the cell surface (human) (UniProt Q04609); experiment: fraction of radiolabel bound to cells, average
[2] = target: prostate specific membrane antigen (PSMA), full-length, on the cell surface (human) (UniProt Q04609); experiment: fraction of radiolabel bound to cells, PSMA-3T3
[3] = target: prostate specific membrane antigen (PSMA), full-length, on the cell surface (human) (UniProt Q04609); experiment: cell-based or functional assay

prostate specific membrane antigen (PSMA), full-length, on the cell surface (human), sequence (Q04609 whole entry): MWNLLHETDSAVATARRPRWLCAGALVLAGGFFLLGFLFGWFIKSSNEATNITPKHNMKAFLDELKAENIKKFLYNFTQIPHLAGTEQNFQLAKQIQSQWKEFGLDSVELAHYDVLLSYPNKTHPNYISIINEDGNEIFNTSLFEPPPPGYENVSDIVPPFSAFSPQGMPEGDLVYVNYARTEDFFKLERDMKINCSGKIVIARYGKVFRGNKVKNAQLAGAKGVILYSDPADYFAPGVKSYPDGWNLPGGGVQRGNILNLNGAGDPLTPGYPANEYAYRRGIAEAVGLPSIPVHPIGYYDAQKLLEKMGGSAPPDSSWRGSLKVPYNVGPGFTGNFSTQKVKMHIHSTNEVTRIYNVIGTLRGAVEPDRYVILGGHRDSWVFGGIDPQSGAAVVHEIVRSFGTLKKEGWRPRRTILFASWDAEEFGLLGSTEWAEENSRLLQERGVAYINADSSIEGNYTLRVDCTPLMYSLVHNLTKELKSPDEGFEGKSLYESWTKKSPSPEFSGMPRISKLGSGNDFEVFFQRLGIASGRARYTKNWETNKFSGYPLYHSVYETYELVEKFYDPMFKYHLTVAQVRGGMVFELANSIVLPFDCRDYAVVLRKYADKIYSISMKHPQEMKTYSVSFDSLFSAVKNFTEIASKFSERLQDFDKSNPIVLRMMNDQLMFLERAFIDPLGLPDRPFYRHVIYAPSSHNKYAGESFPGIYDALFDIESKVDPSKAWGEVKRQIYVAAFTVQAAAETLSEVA

Row | Substance | Immunoreactivity (%) [1] [%] | Immunoreactivity (%) [2] | LD50, immunotoxin cytotoxicity (Mab-Zap saporin) on C4-2 cells [3] [pM] | LD50, immunotoxin cytotoxicity (Mab-Zap saporin) on PSMA-3T3 cells [3] [pM]
1 | 111In radiolabeled mJ591 (antibody) | 56.7 | 58.5% and 54.9% | – | –
2 | mAb J591 (antibody) | – | – | 88.2 | 89
